{"source": "the RNAGym collection of RNA variant scans (doi:10.1093/molbev/msab373)", "parents": {"B1": {"name": "Azoarcus group I ribozyme (parent)", "chain": "GUGCCUUGCGCCGGGAAACCACGCAAGGGAUGGUGUCAAAUUCGGCGAAACCUAAGCGCCCGCCCGGGCGUAUGGCAACGCCGAGCCAAGCUUCGGCGCCUGCGCCGAUGAAGGUGUAGAGACUAGACGGCACCCACCUAAGGCAAACGCUAUGGUGAAGGCAUAGUCCAGGGAGUGGCGAAAGUCACACAAACCGG"}}, "data": [{"variants_of": "B1", "assay": "reverse-splicing fitness (ratio to wild type); higher = more active; in vitro selection; Mg2+ level not given", "procedure,_shortened": "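An in vitro group I ribozyme library with randomized positions was T7-transcribed and gel-purified. In triplicate, 10 pmol RNA in EPPS pH 7.5 was reacted with 50 pmoles of a 30-nt RNA substrate for 1 h at 37 °C across several added MgCl2 levels (1–48 mM), then stopped with EDTA. Products were reverse transcribed from a substrate-complementary primer, PCR-amplified and sequenced (HiSeq 4000). Fitness is a variant's read proportion after selection over that before, normalised to wild type.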", "values": [{"variant": "A111C A120C A145G C150U U176A", "reverse-splicing fitness": 0.159}, {"variant": "A111C A120C A145G C150U U176C", "reverse-splicing fitness": 0.18}, {"variant": "A111C A120G A145C", "reverse-splicing fitness": 0.149}, {"variant": "A111C A120G A145G", "reverse-splicing fitness": 0.189}, {"variant": "A111C A120G A145U", "reverse-splicing fitness": 0.179}, {"variant": "A111C A120G A145G C169G U176C", "reverse-splicing fitness": 0.0552}, {"variant": "A111C A120G A145G C169G U176A", "reverse-splicing fitness": 0.036}, {"variant": "A111C A120G A145G C169G U176G", "reverse-splicing fitness": 0.00512}, {"variant": "A111C A120C A145U C150G C169U U176G", "reverse-splicing fitness": 0.00656}, {"variant": "A111C A120C A145U C150G C169U U176A", "reverse-splicing fitness": 0.00997}, {"variant": "A111C A120C A145U C150G C169U U176C", "reverse-splicing fitness": 0.0173}, {"variant": "A111C A120G A145G C150U U176C", "reverse-splicing fitness": 0.04}, {"variant": "A111C A120G A145G C150U U176G", "reverse-splicing fitness": 0.00709}, {"variant": "A111C A120G A145G C150U U176A", "reverse-splicing fitness": 0.0273}, {"variant": "A111C A120C A145U U176A", "reverse-splicing fitness": 0.222}, {"variant": "A111C A120C A145U U176C", "reverse-splicing fitness": 0.215}, {"variant": "A111C A120C A145U U176G", "reverse-splicing fitness": 0.0519}, {"variant": "A111C A120G A145G C150A C169U U176A", "reverse-splicing fitness": 0.0227}, {"variant": "A111C A120G A145G C150A C169U U176G", "reverse-splicing fitness": 0.00466}, {"variant": "A111C A120G A145G C150A C169U U176C", "reverse-splicing fitness": 0.0241}, {"variant": "A111C A120G A145G C150G C169A", "reverse-splicing fitness": 0.0166}, {"variant": "A111C A120G A145G C150G C169G", "reverse-splicing fitness": 0.0248}, {"variant": "A111C A120G A145G C150G C169U", "reverse-splicing fitness": 0.0264}, {"variant": "A111C A120G A145G C150A U176C", "reverse-splicing fitness": 0.0252}, {"variant": "A111C A120G A145G C150A U176A", "reverse-splicing fitness": 0.0132}, {"variant": "A111C A120G A145G C150A U176G", "reverse-splicing fitness": 0.0068}, {"variant": "A111C A120C C150A C169A U176C", "reverse-splicing fitness": 0.0141}, {"variant": "A111C A120C C150A C169A U176G", "reverse-splicing fitness": 0.00693}, {"variant": "A111C A120C C150A C169A U176A", "reverse-splicing fitness": 0.0162}, {"variant": "A111C A120C A145U C150A C169G", "reverse-splicing fitness": 0.00628}, {"variant": "A111C A120C A145U C150A C169A", "reverse-splicing fitness": 0.00839}, {"variant": "A111C A120C A145U C150A C169U", "reverse-splicing fitness": 0.024}, {"variant": "A111C A120G A145C C150U C169U U176C", "reverse-splicing fitness": 0.0192}, {"variant": "A111C A120G A145C C150U C169U U176A", "reverse-splicing fitness": 0.0247}, {"variant": "A111C A120G A145C C150U C169U U176G", "reverse-splicing fitness": 0.00528}, {"variant": "A111C A120C A145U C150U C169A U176C", "reverse-splicing fitness": 0.00838}, {"variant": "A111C A120C A145U C150U C169A U176G", "reverse-splicing fitness": 0.00715}, {"variant": "A111C A120C A145U C150U C169A U176A", "reverse-splicing fitness": 0.012}, {"variant": "A111C A120C A145U C150G C169G", "reverse-splicing fitness": 0.00671}, {"variant": "A111C A120C A145U C150G C169A", "reverse-splicing fitness": 0.00797}, {"variant": "A111C A120C A145U C150G C169U", "reverse-splicing fitness": 0.0234}, {"variant": "A111C A120G A145G C150U C169A U176A", "reverse-splicing fitness": 0.0192}, {"variant": "A111C A120G A145G C150U C169A U176G", "reverse-splicing fitness": 0.00548}, {"variant": "A111C A120G A145G C150U C169A U176C", "reverse-splicing fitness": 0.0222}, {"variant": "A111C A120G", "reverse-splicing fitness": 0.185}, {"variant": "A111C A120G A145G C150G C169U U176A", "reverse-splicing fitness": 0.0115}, {"variant": "A111C A120G A145G C150G C169U U176G", "reverse-splicing fitness": 0.00619}, {"variant": "A111C A120G A145G C150G C169U U176C", "reverse-splicing fitness": 0.0161}, {"variant": "A111C A120C A145U C150U U176A", "reverse-splicing fitness": 0.146}, {"variant": "A111C A120C A145U C150U U176G", "reverse-splicing fitness": 0.0336}, {"variant": "A111C A120C A145U C150U U176C", "reverse-splicing fitness": 0.174}, {"variant": "A111C A120G A145G C150A C169A U176C", "reverse-splicing fitness": 0.022}, {"variant": "A111C A120G A145G C150A C169A U176A", "reverse-splicing fitness": 0.0174}, {"variant": "A111C A120G A145G C150A C169A U176G", "reverse-splicing fitness": 0.0058}, {"variant": "A111C A120G A145U C150A C169A U176G", "reverse-splicing fitness": 0.00497}, {"variant": "A111C A120G A145U C150A C169A U176A", "reverse-splicing fitness": 0.0109}, {"variant": "A111C A120G A145U C150A C169A U176C", "reverse-splicing fitness": 0.011}, {"variant": "A111C A120C A145U C150U", "reverse-splicing fitness": 0.415}, {"variant": "A111C A120C A145U C150G", "reverse-splicing fitness": 0.0621}, {"variant": "A111C A120C A145U C150A", "reverse-splicing fitness": 0.0648}, {"variant": "A111C A120G A145C C150A C169G U176G", "reverse-splicing fitness": 0.00527}, {"variant": "A111C A120G A145C C150A C169G U176A", "reverse-splicing fitness": 0.024}, {"variant": "A111C A120G A145C C150A C169G U176C", "reverse-splicing fitness": 0.0161}, {"variant": "A111C A120C A145G C169G U176A", "reverse-splicing fitness": 0.0201}, {"variant": "A111C A120C A145G C169G U176C", "reverse-splicing fitness": 0.0244}, {"variant": "A111C A120C A145G C169G U176G", "reverse-splicing fitness": 0.00588}, {"variant": "A111C A120G A145C C169G U176C", "reverse-splicing fitness": 0.0399}, {"variant": "A111C A120G A145C C169G U176A", "reverse-splicing fitness": 0.0348}, {"variant": "A111C A120G A145C C169G U176G", "reverse-splicing fitness": 0.00459}, {"variant": "A111C A120G A145G C150U C169U", "reverse-splicing fitness": 0.139}, {"variant": "A111C A120G A145G C150U C169G", "reverse-splicing fitness": 0.167}, {"variant": "A111C A120G A145G C150U C169A", "reverse-splicing fitness": 0.0989}, {"variant": "A111C A120C C150U C169G U176C", "reverse-splicing fitness": 0.0164}, {"variant": "A111C A120C C150U C169G U176G", "reverse-splicing fitness": 0.00557}, {"variant": "A111C A120C C150U C169G U176A", "reverse-splicing fitness": 0.0124}, {"variant": "A111C A120G A145C C150A C169U", "reverse-splicing fitness": 0.0139}, {"variant": "A111C A120G A145C C150A C169G", "reverse-splicing fitness": 0.0149}, {"variant": "A111C A120G A145C C150A C169A", "reverse-splicing fitness": 0.0103}, {"variant": "A111C A120G A145C C150U U176A", "reverse-splicing fitness": 0.0163}, {"variant": "A111C A120G A145C C150U U176C", "reverse-splicing fitness": 0.0189}, {"variant": "A111C A120G A145C C150U U176G", "reverse-splicing fitness": 0.00427}, {"variant": "A111C A120G A145C C150A C169A U176A", "reverse-splicing fitness": 0.0112}, {"variant": "A111C A120G A145C C150A C169A U176C", "reverse-splicing fitness": 0.00698}]}]}
